Molecular target: monkey IL-1Rrp1 endogenous to COS7 cells (monkey)
Assay: cell-based or functional assay

- increase in NFκB activity (NFκB-Luc reporter) in COS7 cells transfected with hAcPL alone and stimulated with hIL-18: 8 fold
B1: hAcPL expressed on COS7 cells (receptor)
chain: ERIKGFNISGCSTKKLLWTYSTRSEEEFVLFCDLPEPQKSHFCHRNRLSPKQVPEHLPFMGSNDLSDVQWYQQPSNGDPLEDIRKSYPHIIQDKCTLHFLTPGVNNSGSYICRPKMIKSPYDVACCVKMILEVKPQTNASCEYSASHKQDLLLGSTGSISCPSLSCQSDAQSPAVTWYKNGKLLSVERSNRIVVDEVYDYHQGTYVCDYTQSDTVSSWTVRAVVQVRTIVGDTKLKPDILDPVEDTLEVELGKPLTISCKARFGFERVFNPVIKWYIKDSDLEWEVSVPEAKSIKSTLKDEIIERNIILEKVTQRDLRRKFVCFVQNSIGNTTQSVQLKEKRGVVLLYILLGTIGTLVAVLAASALLYRHWIEIVLLYRTYQSKDQTLGDKKDFDAFVSYAKWSSFPSEATSSLSEEHLALSLFPDVLENKYGYSLCLLERDVAPGGVYAEDIVSIIKRSRRGIFILSPNYVNGPSIFELQAAVNLALDDQTLKLILIKFCYFQEPESLPHLVKKALRVLPTVTWRGLKSVPPNSRFWAKMRYHMPVKNSQGFTWNQLRITSRIFQWKGLSRTETTGRSSQPKEW
